Values quoted from earlier work in patent US20200069786A1, “COMPOSITION AND PROCESS FOR PREPARING VACCINE” (TREOS BIO ZRT., priority 2018, published 2020).
Like-named read-outs stand apart in the source and are kept apart here.

System: TSA
Settings: for TSA Expression Rate (ER): BREAST
[1] = TSA expression rate in PROSTATE cancer

B1: TTK (protein, UniProt P33981 1-857, looked up)
Dual specificity protein …: MESEDLSGRELTIDSIMNKVRDIKNKFKNEDLTDELSLNKISADTTDNSGTVNQIMMMANNPEDWLSLLLKLEKNSVPLSDALLNKLIGRYSQAIEALPPDKYGQNESFARIQVRFAELKAIQEPDDARDYFQMARANCKKFAFVHISFAQFELSQGNVKKSKQLLQKAVERGAVPLEMLEIALRNLNLQKKQLLSEEEKKNLSASTVLTAQESFSGSLGHLQNRNNSCDSRGQTTKARFLYGENMPPQDAEIGYRNSLRQTNKTKQSCPFGRVPVNLLNSPDCDVKTDDSVVPCFMKRQTSRSECRDLVVPGSKPSGNDSCELRNLKSVQNSHFKEPLVSDEKSSELIITDSITLKNKTESSLLAKLEETKEYQEPEVPESNQKQWQSKRKSECINQNPAASSNHWQIPELARKVNTEQKHTTFEQPVFSVSKQSPPISTSKWFDPKSICKTPSSNTLDDYMSCFRTPVVKNDFPPACQLSTPYGQPACFQQQQHQILATPLQNLQVLASSSANECISVKGRIYSILKQIGSGGSSKVFQVLNEKKQIYAIKYVNLEEADNQTLDSYRNEIAYLNKLQQHSDKIIRLYDYEITDQYIYMVMECGNIDLNSWLKKKKSIDPWERKSYWKNMLEAVHTIHQHGIVHSDLKPANFLIVDGMLKLIDFGIANQMQPDTTSVVKDSQVGTVNYMPPEAIKDMSSSRENGKSKSKISPKSDVWSLGCILYYMTYGKTPFQQIINQISKLHAIIDPNHEIEFPDIPEKDLQDVLKCCLKRDPKQRISIPELLAHPYVQIQTHPVNQMAKGTTEEMKYVLGQLVGLNSPNSILKAAKTLYEHYSGGESHNSSSSKTFEKKRGKK
Expression Rate (ER) % (TSA expression rate in Esophageal): 97%

B2: PAGE1 (protein, UniProt O75459 1-146, looked up)
P antigen family member 1: MGFLRRLIYRRRPMIYVESSEESSDEQPDEVESPTQSQDSTPAEEREDEGASAAQGQEPEADSQELVQPKTGCELGDGPDTKRVCLRNEEQMKLPAEGPEPEADSQEQVHPKTGCERGDGPDVQELGLPNPEEVKTPEEDEGQSQP
Expression Rate (ER) % (TSA expression rate in CRC): 0%

B3: ODF3 (protein, UniProt Q96PU9 1-254, looked up)
Ciliary microtubule …: MTEEVWMGTWRPHRPRGPIMALYSSPGPKYLIPPTTGFMKHTPTKLRAPAYSFRGAPMLLAENCSPGPRYNVNPKILRTGKDLGPAYSILGRYQTKTMLTPGPGDYFPEKSTKYVFDSAPSHSISARTKAFRVDSTPGPAAYMLPMVMGPNTVGKASQPSFSIKGRSKLGGFSDDLHKTPGPAAYRQTDVRVTKFKAPQYTMAARVEPPGDKTLKPGPGAHSPEKVTLTKPCAPVVTFGIKHSDYMTPLLVDVE
TSA Expression Rate (ER): 0%
Expression Rate (ER) % [1]: 0%

B4: MCAK (protein, UniProt Q99661 2-725, looked up)
Kinesin-like protein KIF2C: AMDSSLQARLFPGLAIKIQRSNGLIHSANVRTVNLEKSCVSVEWAEGGATKGKEIDFDDVAAINPELLQLLPLHPKDNLPLQENVTIQKQKRRSVNSKIPAPKESLRSRSTRMSTVSELRITAQENDMEVELPAAANSRKQFSVPPAPTRPSCPAVAEIPLRMVSEEMEEQVHSIRGSSSANPVNSVRRKSCLVKEVEKMKNKREEKKAQNSEMRMKRAQEYDSSFPNWEFARMIKEFRATLECHPLTMTDPIEEHRICVCVRKRPLNKQELAKKEIDVISIPSKCLLLVHEPKLKVDLTKYLENQAFCFDFAFDETASNEVVYRFTARPLVQTIFEGGKATCFAYGQTGSGKTHTMGGDLSGKAQNASKGIYAMASRDVFLLKNQPCYRKLGLEVYVTFFEIYNGKLFDLLNKKAKLRVLEDGKQQVQVVGLQEHLVNSADDVIKMIDMGSACRTSGQTFANSNSSRSHACFQIILRAKGRMHGKFSLVDLAGNERGADTSSADRQTRMEGAEINKSLLALKECIRALGQNKAHTPFRESKLTQVLRDSFIGENSRTCMIATISPGISSCEYTLNTLRYADRVKELSPHSGPSGEQLIQMETEEMEACSNGALIPGNLSKEEEELSSQMSSFNEAMTQIRELEEKAMEELKEIIQQGPDWLELSEMTEQPDYDLETFVNKAESALAQQAKHFSALRDVIKALRLAMQLEEQASRQISSKKRPQ
Expression Rate (ER) % (TSA expression rate in CRC): 100%

B5: TEX101 (protein, UniProt Q9BY14 26-222, looked up)
Testis-expressed protein 101: LYCQKGLSMTVEADPANMFNWTTEEVETCDKGALCQETILIIKAGTETAILATKGCIPEGEEAITIVQHSSPPGLIVTSYSNYCEDSFCNDKDSLSQFWEFSETTASTVSTTLHCPTCVALGTCFSAPSLPCPNGTTRCYQGKLEITGGGIESSVEVKGCTAMIGCRLMSGILAVGPMFVREACPHQLLTQPRKTEN
TSA Expression Rate (ER): 0%

B6: ODF2 (protein, UniProt Q5BJF6 1-829, looked up)
Outer dense fiber protein 2: MSASSSGGSPRFPSCGKNGVTSLTQKKVLRAPCGAPSVTVTKSHKRGMKGDTVNVRRSVRVKTKVPWMPPGKSSARPVGCKWENPPHCLEITPPSSEKLVSVMRLSDLSTEDDDSGHCKMNRYDKKIDSLMNAVGCLKSEVKMQKGERQMAKRFLEERKEELEEVAHELAETEHENTVLRHNIERMKEEKDFTILQKKHLQQEKECLMSKLVEAEMDGAAAAKQVMALKDTIGKLKTEKQMTCTDINTLTRQKELLLQKLSTFEETNRTLRDLLREQHCKEDSERLMEQQGALLKRLAEADSEKARLLLLLQDKDKEVEELLQEIQCEKAQAKTASELSKSMESMRGHLQAQLRSKEAENSRLCMQIKNLERSGNQHKAEVEAIMEQLKELKQKGDRDKESLKKAIRAQKERAEKSEEYAEQLHVQLADKDLYVAEALSTLESWRSRYNQVVKEKGDLELEIIVLNDRVTDLVNQQQTLEEKMREDRDSLVERLHRQTAEYSAFKLENERLKASFAPMEDKLNQAHLEVQQLKASVKNYEGMIDNYKSQVMKTRLEADEVAAQLERCDKENKILKDEMNKEIEAARRQFQSQLADLQQLPDILKITEAKLAECQDQLQGYERKNIDLTAIISDLRSRIEHQGDKLEMAREKHQASQKENKQLSLKVDELERKLEATSAQNIEFLQVIAKREEAIHQSQLRLEEKTRECGTLARQLESAIEDARRQVEQTKEHALSKERAAQNKILDLETQLSRTKTELSQLRRSRDDADRRYQSRLQDLKDRLEQSESTNRSMQNYVQFLKSSYANVFGDGPYSTFLTSSPIRSRSPPA
Expression Rate (ER) % [1]: 10%

B7: PRSS55 (protein, UniProt Q6UWB4 19-352, looked up)
Serine protease 55: GPRTPLPEAGVAILGRARGAHRPQPPHPPSPVSECGDRSIFEGRTRYSRITGGMEAEVGEFPWQVSIQARSEPFCGGSILNKWWILTAAHCLYSEELFPEELSVVLGTNDLTSPSMEIKEVASIILHKDFKRANMDNDIALLLLASPIKLDDLKVPICLPTQPGPATWRECWVAGWGQTNAADKNSVKTDLMKAPMVIMDWEECSKMFPKLTKNMLCAGYKNESYDACKGDSGGPLVCTPEPGEKWYQVGIISWGKSCGEKNTPGIYTSLVNYNLWIEKVTQLEGRPFNAEKRRTSVKQKPMGSPVSGVPEPGSPRSWLLLCPLSHVLFRAILY
Expression Rate (ER) % [1]: 1%

B8: SART3 (protein, UniProt Q15020 2-963, looked up)
Spliceosome associated factor …: ATAAETSASEPEAESKAGPKADGEEDEVKAARTRRKVLSRAVAAATYKTMGPAWDQQEEGVSESDGDEYAMASSAESSPGEYEWEYDEEEEKNQLEIERLEEQLSINVYDYNCHVDLIRLLRLEGELTKVRMARQKMSEIFPLTEELWLEWLHDEISMAQDGLDREHVYDLFEKAVKDYICPNIWLEYGQYSVGGIGQKGGLEKVRSVFERALSSVGLHMTKGLALWEAYREFESAIVEAARLEKVHSLFRRQLAIPLYDMEATFAEYEEWSEDPIPESVIQNYNKALQQLEKYKPYEEALLQAEAPRLAEYQAYIDFEMKIGDPARIQLIFERALVENCLVPDLWIRYSQYLDRQLKVKDLVLSVHNRAIRNCPWTVALWSRYLLAMERHGVDHQVISVTFEKALNAGFIQATDYVEIWQAYLDYLRRRVDFKQDSSKELEELRAAFTRALEYLKQEVEERFNESGDPSCVIMQNWARIEARLCNNMQKARELWDSIMTRGNAKYANMWLEYYNLERAHGDTQHCRKALHRAVQCTSDYPEHVCEVLLTMERTEGSLEDWDIAVQKTETRLARVNEQRMKAAEKEAALVQQEEEKAEQRKRARAEKKALKKKKKIRGPEKRGADEDDEKEWGDDEEEQPSKRRRVENSIPAAGETQNVEVAAGPAGKCAAVDVEPPSKQKEKAASLKRDMPKVLHDSSKDSITVFVSNLPYSMQEPDTKLRPLFEACGEVVQIRPIFSNRGDFRGYCYVEFKEEKSALQALEMDRKSVEGRPMFVSPCVDKSKNPDFKVFRYSTSLEKHKLFISGLPFSCTKEELEEICKAHGTVKDLRLVTNRAGKPKGLAYVEYENESQASQAVMKMDGMTIKENIIKVAISNPPQRKVPEKPETRKAPGGPMLLPQTYGARGKGRTQLSLLPRALQRPSAAAPQAENGPAAAPAVAAPAATEAPKMSNADFAKLFLRK
Expression Rate (ER) % (TSA expression rate in PEDIATRIC): 73%

B9: ODF1 (protein, UniProt Q14990 1-250, looked up)
Outer dense fiber protein 1: MAALSCLLDSVRRDIKKVDRELRQLRCIDEFSTRCLCDLYMHPYCCCDLHPYPYCLCYSKRSRSCGLCDLYPCCLCDYKLYCLRPSLRSLERKAIRAIEDEKRELAKLRRTTNRILASSCCSSNILGSVNVCGFEPDQVKVRVKDGKVCVSAERENRYDCLGSKKYSYMNICKEFSLPPCVDEKDVTYSYGLGSCVKIESPCYPCTSPCSPCSPCSPCNPCSPCNPCSPYDPCNPCYPCGSRFSCRKMIL
Expression Rate (ER) % [1]: 10%
